{"source": "patent US20120027722A1", "about": "(MEDICAL RESEARCH COUNCIL, published 2012)", "binders": {"B1": {"name": "humanized AP33 antibody RH-C/RK2b (antibody, V domains shown)", "VH": "QVQLQESGPGLVKPSETLSLTCTVSGDSITSGYWNWIRQPPGRALEWMGYISYSGSTYYNLSLRSRITISRDTSKNQYSLRLSSVTAADTAMYYCALITTTTYAMDYWGQGTTVTVSS", "VL": "EIVLTQSPSSLSASVGDRVTITCRASESVDGYGNSFLHWFQQKPGKAPKLLIYLASNLNSGVPSRFSGSGSGTDFTLTISSLQPEDFATYYCQQNNVDPWTFGQGTKLEIK", "notes": "also called RH-C antibody"}, "B2": {"name": "RH-C/RK2b Fab (Fab, V domains shown)", "VH": "B1 VH", "VL": "B1 VL", "notes": "also called Fab fragment of RH-C/RK2b"}}, "key": {"[1]": {"biological_target": "T1, soluble HCV E2 truncated at amino acid 661 (sE2661), His-tagged (Hepatitis C virus (isolate ))", "T1 construct": "extracellular domain; also called soluble E2", "assay": "SPR (BIAcore A100), antibody captured on anti-human Fc chip, sE2 injected 1.56-50 nM, 1:1 Langmuir fit"}, "[2]": {"biological_target": "HCV E1E2 glycoproteins, isolate 1B5.23 (on HCVpp) (Hepatitis C virus genotype 1 (1B5.23))", "assay": "cell-based or functional assay"}, "[3]": {"biological_target": "HCV E1E2 glycoproteins, isolate 2B1.1 (on HCVpp) (Hepatitis C virus genotype 2 (2B1.1))", "assay": "cell-based or functional assay"}, "[4]": {"biological_target": "HCV E1E2 glycoproteins, isolate 4.21.16 (on HCVpp) (Hepatitis C virus genotype 4 (4.21.16))", "assay": "cell-based or functional assay"}, "[5]": {"biological_target": "HCV E1E2 glycoproteins, isolate 1A20.8 (on HCVpp) (Hepatitis C virus genotype 1 (1A20.8))", "assay": "cell-based or functional assay"}, "[6]": {"biological_target": "HCV E1E2 glycoproteins, isolate 2A2.4 (on HCVpp) (Hepatitis C virus genotype 2 (2A2.4))", "assay": "cell-based or functional assay"}, "[7]": {"biological_target": "HCV E1E2 glycoproteins, isolate 5.15.11 (on HCVpp) (Hepatitis C virus genotype 5 (5.15.11))", "assay": "cell-based or functional assay"}, "[8]": {"biological_target": "HCV E1E2 glycoproteins, genotype 2a isolate JFH1 (on HCVpp) (Hepatitis C virus genotype 2a (JFH1), UniProt Q99IB8 192-383; Q99IB8 384-750)", "sequence (Q99IB8 192-383 limits assumed, chain 1 of 2)": "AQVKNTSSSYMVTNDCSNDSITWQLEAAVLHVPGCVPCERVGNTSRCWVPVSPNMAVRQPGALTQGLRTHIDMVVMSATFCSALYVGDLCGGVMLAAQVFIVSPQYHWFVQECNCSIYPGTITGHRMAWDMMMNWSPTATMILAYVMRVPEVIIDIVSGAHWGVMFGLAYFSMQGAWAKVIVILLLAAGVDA", "sequence (Q99IB8 384-750 limits assumed, chain 2 of 2)": "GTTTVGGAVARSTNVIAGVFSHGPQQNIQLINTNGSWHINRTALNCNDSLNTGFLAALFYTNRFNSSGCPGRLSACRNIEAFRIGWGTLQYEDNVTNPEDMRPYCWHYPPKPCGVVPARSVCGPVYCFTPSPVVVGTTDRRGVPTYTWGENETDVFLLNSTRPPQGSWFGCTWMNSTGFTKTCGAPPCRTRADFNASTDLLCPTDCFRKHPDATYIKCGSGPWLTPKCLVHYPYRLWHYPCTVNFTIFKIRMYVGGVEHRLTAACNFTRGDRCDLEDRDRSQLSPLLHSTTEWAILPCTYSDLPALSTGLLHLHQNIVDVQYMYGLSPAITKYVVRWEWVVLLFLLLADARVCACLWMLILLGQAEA", "assay": "cell-based or functional assay"}, "[9]": {"biological_target": "HCV E1E2 glycoproteins, isolate 6.5.8 (on HCVpp) (Hepatitis C virus genotype 6 (6.5.8))", "assay": "cell-based or functional assay"}, "[10]": {"biological_target": "HCV E1E2 glycoproteins, genotype 3a isolate F4/2-35 (on HCVpp) (Hepatitis C virus genotype 3a (F4/2-35))", "assay": "cell-based or functional assay"}, "[11]": {"biological_target": "HCV E1E2 glycoproteins, genotype 2a (J6) (Hepatitis C virus genotype 2a (J6))", "assay": "cell-based or functional assay"}, "[12]": {"biological_target": "HCV E1E2 glycoproteins, genotype 1b (Con1) (Hepatitis C virus genotype 1b (Con1), UniProt Q9WMX2 192-383; Q9WMX2 384-746)", "sequence (Q9WMX2 192-383 limits assumed, chain 1 of 2)": "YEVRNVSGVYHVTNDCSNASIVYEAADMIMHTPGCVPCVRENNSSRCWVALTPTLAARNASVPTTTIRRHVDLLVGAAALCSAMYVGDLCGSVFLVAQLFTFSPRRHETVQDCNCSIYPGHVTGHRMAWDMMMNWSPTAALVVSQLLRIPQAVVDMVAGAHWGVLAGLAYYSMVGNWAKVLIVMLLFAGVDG", "sequence (Q9WMX2 384-746 limits assumed, chain 2 of 2)": "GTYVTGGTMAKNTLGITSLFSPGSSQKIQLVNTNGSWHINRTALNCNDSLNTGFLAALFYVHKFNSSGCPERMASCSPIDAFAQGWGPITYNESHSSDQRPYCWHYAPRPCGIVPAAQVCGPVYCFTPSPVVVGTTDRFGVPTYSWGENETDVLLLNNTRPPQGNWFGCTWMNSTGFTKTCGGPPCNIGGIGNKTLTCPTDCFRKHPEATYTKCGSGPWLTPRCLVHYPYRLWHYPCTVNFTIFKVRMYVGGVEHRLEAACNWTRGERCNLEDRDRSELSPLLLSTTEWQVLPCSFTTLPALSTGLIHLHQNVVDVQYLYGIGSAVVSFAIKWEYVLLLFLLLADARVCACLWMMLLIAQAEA", "assay": "cell-based or functional assay"}, "[13]": {"biological_target": "T2, HCV E1E2 heterodimer expressed on the surface of 293T cells (Hepatitis C virus (isolate ))", "T2 construct": "whole, on cells; also called cell surface expressed E2; E1E2 Scatchard", "assay": "Scatchard analysis, 125I-antibody versus unlabeled antibody on E1E2-transfected 293T cells"}, "[14]": {"biological_target": "T2, HCV E1E2 heterodimer expressed on the …", "assay": "Scatchard analysis, 125I-Fab versus unlabeled Fab on E1E2-transfected 293T cells"}, "[15]": {"biological_target": "T1, soluble HCV E2 truncated at amino acid …", "assay": "SPR (BIAcore), sE2"}}, "data": [{"binder": "B1", "values": [{"measurement": "Kd", "setting": "[1]", "value": 3.8, "unit": "nM"}, {"measurement": "IC50 of HCVpp infection (Huh-7, luciferase)", "setting": "[2]", "value": 0.9, "unit": "µg/mL"}, {"measurement": "IC90 of HCVpp infection (Huh-7, luciferase)", "setting": "[2]", "value": 8.3, "unit": "µg/mL"}, {"measurement": "IC50 of HCVpp infection (Huh-7, luciferase)", "setting": "[3]", "value": 3, "unit": "µg/mL"}, {"measurement": "IC90 of HCVpp infection (Huh-7, luciferase)", "setting": "[3]", "value": "> 15", "unit": "µg/mL"}, {"measurement": "IC50 of HCVpp infection (Huh-7, luciferase)", "setting": "[4]", "value": "< 0.41", "unit": "µg/mL"}, {"measurement": "IC90 of HCVpp infection (Huh-7, luciferase)", "setting": "[4]", "value": 0.92, "unit": "µg/mL"}, {"measurement": "IC50 of HCVpp infection (Huh-7, luciferase)", "setting": "[5]", "value": 1.6, "unit": "µg/mL"}, {"measurement": "IC90 of HCVpp infection (Huh-7, luciferase)", "setting": "[5]", "value": 15, "unit": "µg/mL"}, {"measurement": "IC50 of HCVpp infection (Huh-7, luciferase)", "setting": "[6]", "value": 0.51, "unit": "µg/mL"}, {"measurement": "IC90 of HCVpp infection (Huh-7, luciferase)", "setting": "[6]", "value": 6, "unit": "µg/mL"}, {"measurement": "IC50 of HCVpp infection (Huh-7, luciferase)", "setting": "[7]", "value": 0.053, "unit": "µg/mL"}, {"measurement": "IC90 of HCVpp infection (Huh-7, luciferase)", "setting": "[7]", "value": 0.82, "unit": "µg/mL"}, {"measurement": "IC50 of HCVpp infection (Huh-7, luciferase)", "setting": "[8]", "value": 0.64, "unit": "µg/mL"}, {"measurement": "IC90 of HCVpp infection (Huh-7, luciferase)", "setting": "[8]", "value": 7, "unit": "µg/mL"}, {"measurement": "IC50 of HCVpp infection (Huh-7, luciferase)", "setting": "[9]", "value": "< 0.41", "unit": "µg/mL"}, {"measurement": "IC90 of HCVpp infection (Huh-7, luciferase)", "setting": "[9]", "value": 1.8, "unit": "µg/mL"}, {"measurement": "IC50 of HCVpp infection (Huh-7, luciferase)", "setting": "[10]", "value": "< 0.41", "unit": "µg/mL"}, {"measurement": "IC90 of HCVpp infection (Huh-7, luciferase)", "setting": "[10]", "value": 2.15, "unit": "µg/mL"}, {"measurement": "EC50, neutralization of J6 HCVpp entry (Huh-7.5, luciferase)", "setting": "[11]", "value": 0.793, "unit": "µg/mL"}, {"measurement": "neutralization of J6 HCVcc infection, fold better than AP33", "setting": "[11]", "value": "≥ 4.7", "unit": "fold"}, {"measurement": "EC50, neutralization of Con1 HCVpp entry (Huh-7.5, luciferase)", "setting": "[12]", "value": 0.511, "unit": "µg/mL"}, {"measurement": "Kd", "setting": "[13]", "value": 5, "unit": "nM"}]}, {"binder": "B2", "values": [{"measurement": "Kd", "setting": "[14]", "value": 50, "unit": "nM"}, {"measurement": "Kd", "setting": "[15]", "value": "~0.5", "unit": "nM"}]}]}
